# Earlier results as cited in patent US20240100071A1, “COMBINATION THERAPY FOR PATIENTS HAVING ACUTE AND/OR PERSISTENT DYSPNEA” (S-Form Pharma, priority 2020, published 2024).
# Read-outs that look alike come from different tables or passages of the source.
# Details: human plasma 24° C., cited from earlier work; for Average ADM recovery (N = 5): 10 ng ADM/ml; for Average loss of immune reactivity: MR-ADM/CT-ADM sandwich immune assay
substance,measurement,setting,value
Human Adrenomedullin [hADM],Average ADM recovery (N = 5),0 h,100
same,Average ADM recovery (N = 5),2 h,99.2
same,Loss of immune reactivity %/h,2 h,0.4 %/h
same,Average ADM recovery (N = 5),4 h,96.4
same,Loss of immune reactivity %/h,4 h,0.8 %/h
same,Average ADM recovery (N = 5),8 h,88.2
same,Loss of immune reactivity %/h,8 h,1.5 %/h
same,Average loss of immune reactivity,,Average: 0.9%/h
same,Average loss of immune reactivity,listed as ADM,0.9 %/h
